From article PMC6564026, “An autoinducer-independent RhlR quorum-sensing receptor enables analysis of RhlR regulation” come the findings set out here.

One series deals with MBP-RhlR* (Pseudomonas aeruginosa, UniProt P54292 1-241, Y64F;W68F;V133F). The series is described as follows: ITC; no ligand; EMSA: 20 mM Tris-HCl pH 8, 50 mM KCl, 1 mM EDTA, 1 mM DTT, 1.5 mg/mL poly-IC, 50 ug/mL BSA, 10% glycerol, room temp 15 min; ITC: 25 C, S200 buffer (200 mM NaCl, 20 mM Tris-HCl pH 8, 1 mM DTT), 20 uM DNA titrated into 1 uM protein. The settings on record: protein: recombinant; tags: N-terminal MBP (pMALC2x); chain copies: 2; duplex not explicitly stated. (In general: Isothermal titration calorimetry measures the heat released or taken up as one component is titrated into another.)

For the next series, the target named is MBP-RhlR:mBTL (Pseudomonas aeruginosa, UniProt P54292 1-241). The series is described as follows: ITC; mBTL; EMSA: 20 mM Tris-HCl pH 8, 50 mM KCl, 1 mM EDTA, 1 mM DTT, 1.5 mg/mL poly-IC, 50 ug/mL BSA, 10% glycerol, room temp 15 min; ITC: 25 C, S200 buffer (200 mM NaCl, 20 mM Tris-HCl pH 8, 1 mM DTT), 20 uM DNA titrated into 1 uM protein. The conditions noted are these: protein: recombinant; tags: N-terminal MBP (pMALC2x); chain copies: 2; duplex not explicitly stated.

B1: rhl-box consensus (dsDNA)
DNA 1: ACCTGCCAGATTTCGCAGGT
DNA 2: ACCTGCGAAATCTGGCAGGT
Consider B1, for which the figures for the Kd with MBP-RhlR* and with MBP-RhlR:mBTL were 34 nM and 23 nM, respectively.
